According to article PMC11633486, “The Intestinal Transporter SLC30A1 Plays a Critical Role in Regulating Systemic Zinc Homeostasis” (Advanced Science, 2024):

Molecular target: the molecule itself
Test: cryo-EM structure; purified wild-type SLC30A1 at 5 mg/mL in 25 mM Tris pH 8.0, 150 mM NaCl, 0.002% LMNG, 0.0004% CHS; C2 symmetry imposed; homodimer

B1: full-length human SLC30A1 protein (natural protein, UniProt Q9Y6M5 1-507, looked up)
chain: MGCWGRNRGRLLCMLALTFMFMVLEVVVSRVTSSLAMLSDSFHMLSDVLALVVALVAERFARRTHATQKNTFGWIRAEVMGALVNAIFLTGLCFAILLEAIERFIEPHEMQQPLVVLGVGVAGLLVNVLGLCLFHHHSGFSQDSGHGHSHGGHGHGHGLPKGPRVKSTRPGSSDINVAPGEQGPDQEETNTLVANTSNSNGLKLDPADPENPRSGDTVEVQVNGNLVREPDHMELEEDRAGQLNMRGVFLHVLGDALGSVIVVVNALVFYFSWKGCSEGDFCVNPCFPDPCKAFVEIINSTHASVYEAGPCWVLYLDPTLCVVMVCILLYTTYPLLKESALILLQTVPKQIDIRNLIKELRNVEGVEEVHELHVWQLAGSRIIATAHIKCEDPTSYMEVAKTIKDVFHNHGIHATTIQPEFASVGSKSSVVPCELACRTQCALKQCCGTLPQAPSGKDAEKTPAVSISCLELSNNLEKKPRRTKAENIPAVVIEIKNMPNKQPESSL
notes: SLC30A1 (zinc transporter 1), human, full-length cDNA with codon optimization; Homodimer in the cryo-EM structure; the C291 residues of the two protomers form a disulfide bond; also called WT SLC30A1; wild-type SLC30A1; source: HEK293F, transfected (pEZT vector), purified (Strep-Tactin beads, Superose 6 gel filtration) in LMNG/CHS
  stoichiometry N: 2
